Assay [1] deals with T1, DctA fused to the T18 or T25 domain of adenylate cyclase (E. coli, UniProt P0A830 1-428).
T1 construct: Aerobic C4-dicarboxylate transport protein DctA, E. coli; also called DctA-T25; DctA-T18; source: bacterial two-hybrid fusion (pUT18 or pKNT25), in E. coli BTH101 (cyaA-); not shown: T18 or T25 domain of Bordetella pertussis adenylate cyclase CyaA, C-terminal, kept
T1 sequence (looked up): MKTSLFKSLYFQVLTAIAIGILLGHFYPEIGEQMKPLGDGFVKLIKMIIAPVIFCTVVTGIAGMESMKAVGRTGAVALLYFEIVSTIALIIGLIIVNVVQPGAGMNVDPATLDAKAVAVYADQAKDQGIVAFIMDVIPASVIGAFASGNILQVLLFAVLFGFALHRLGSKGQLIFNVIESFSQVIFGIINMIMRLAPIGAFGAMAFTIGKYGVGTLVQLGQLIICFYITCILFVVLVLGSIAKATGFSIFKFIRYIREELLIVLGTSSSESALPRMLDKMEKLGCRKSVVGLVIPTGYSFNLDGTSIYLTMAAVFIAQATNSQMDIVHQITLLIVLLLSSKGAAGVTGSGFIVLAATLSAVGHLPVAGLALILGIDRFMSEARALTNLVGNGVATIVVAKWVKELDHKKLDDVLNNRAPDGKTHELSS
Put plainly: two-hybrid; bacterial two-hybrid (BTH): T18 and T25 fusions co-transformed in E. coli BTH101 (cyaA-), grown overnight in LB at 30 °C; beta-galactosidase activity; background below 150 Miller units; the reporter strain expresses chromosomal DctA and DcuS. The settings on record: partners not purified.

Assay [2] concerns the target T2, DauA fused to the T18 or T25 domain of adenylate cyclase (E. coli, UniProt P0AFR2 1-559).
T2 construct: C4-dicarboxylic acid transporter DauA (previously YchM), E. coli; Stood with T18 and with T25 in reciprocal pairings; one molecule for both; also called DauA-T18; DauA-T25; source: bacterial two-hybrid fusion (pUT18 or pKNT25), in E. coli BTH101 (cyaA-); not shown: T18 or T25 domain of Bordetella pertussis adenylate cyclase CyaA, C-terminal, kept
T2 sequence (looked up): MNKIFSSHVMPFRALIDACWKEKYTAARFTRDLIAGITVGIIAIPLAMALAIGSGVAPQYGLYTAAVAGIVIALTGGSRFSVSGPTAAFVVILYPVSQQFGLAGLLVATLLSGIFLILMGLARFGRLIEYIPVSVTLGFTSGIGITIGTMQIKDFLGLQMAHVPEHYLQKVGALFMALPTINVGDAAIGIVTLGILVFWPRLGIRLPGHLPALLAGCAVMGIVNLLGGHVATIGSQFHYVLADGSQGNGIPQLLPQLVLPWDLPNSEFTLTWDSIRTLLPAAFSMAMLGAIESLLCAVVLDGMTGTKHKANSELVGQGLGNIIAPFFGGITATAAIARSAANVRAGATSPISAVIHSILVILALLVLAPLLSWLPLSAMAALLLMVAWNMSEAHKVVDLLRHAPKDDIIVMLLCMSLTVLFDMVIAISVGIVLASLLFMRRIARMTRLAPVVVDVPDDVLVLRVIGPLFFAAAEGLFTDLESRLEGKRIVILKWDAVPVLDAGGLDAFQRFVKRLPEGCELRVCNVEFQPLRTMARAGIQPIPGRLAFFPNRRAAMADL
Described as above. The settings on record: partners not purified.

Some results are limits rather than exact numbers.

B1: DcuS fused to the T18 or T25 domain of adenylate cyclase (natural protein, E. coli, UniProt P0AEC8 1-543, looked up)
chain: MRHSLPYRMLRKRPMKLSTTVILMVSAVLFSVLLVVHLIYFSQISDMTRDGLANKALAVARTLADSPEIRQGLQKKPQESGIQAIAEAVRKRNDLLFIVVTDMQSLRYSHPEAQRIGQPFKGDDILKALNGEENVAINRGFLAQALRVFTPIYDENHKQIGVVAIGLELSRVTQQINDSRWSIIWSVLFGMLVGLIGTCILVKVLKKILFGLEPYEISTLFEQRQAMLQSIKEGVVAVDDRGEVTLINDAAQELLNYRKSQDDEKLSTLSHSWSQVVDVSEVLRDGTPRRDEEITIKDRLLLINTVPVRSNGVIIGAISTFRDKTEVRKLMQRLDGLVNYADALRERSHEFMNKLHVILGLLHLKSYKQLEDYILKTANNYQEEIGSLLGKIKSPVIAGFLISKINRATDLGHTLILNSESQLPDSGSEDQVATLITTLGNLIENALEALGPEPGGEISVTLHYRHGWLHCEVNDDGPGIAPDKIDHIFDKGVSTKGSERGVGLALVKQQVENLGGSIAVESEPGIFTQFFVQIPWDGERSNR
notes: Membrane embedded sensor histidine kinase DcuS, E. coli; also called DcuS-T18; DcuS-T25; source: bacterial two-hybrid fusion (pUT18 or pKNT25), in E. coli BTH101 (cyaA-); not shown: T18 or T25 domain of Bordetella pertussis adenylate cyclase CyaA, C-terminal, kept
For B1, the beta-galactosidase activity in assay [1] turned out to be 252 Miller units.

B2: AmtB (ammonium transporter), two-hybrid fusion (natural protein, UniProt P69681 1-428, looked up)
chain: MKIATIKTGLASLAMLPGLVMAAPAVADKADNAFMMICTALVLFMTIPGIALFYGGLIRGKNVLSMLTQVTVTFALVCILWVVYGYSLAFGEGNNFFGNINWLMLKNIELTAVMGSIYQYIHVAFQGSFACITVGLIVGALAERIRFSAVLIFVVVWLTLSYIPIAHMVWGGGLLASHGALDFAGGTVVHINAAIAGLVGAYLIGKRVGFGKEAFKPHNLPMVFTGTAILYIGWFGFNAGSAGTANEIAALAFVNTVVATAAAILGWIFGEWALRGKPSLLGACSGAIAGLVGVTPACGYIGVGGALIIGVVAGLAGLWGVTMLKRLLRVDDPCDVFGVHGVCGIVGCIMTGIFAASSLGGVGFAEGVTMGHQLLVQLESIAITIVWSGVVAFIGYKLADLTVGLRVPEEQEREGLDVNSHGENAYNA
notes: Ammonium transporter AmtB; source: bacterial two-hybrid fusion, in E. coli BTH101 (cyaA-)
Consider B2, for which the beta-galactosidase activity in assay [2] is less than 150 Miller units.

The values are drawn from article PMC5703999, “The E. coli dicarboxylic acid transporters DauA act as a signal transducer by interacting with the DctA uptake system” (Scientific Reports, 2017).
